Measurements published in patent US20210388110A1 (published 2021).

Biological target: T1, soluble human GPC3 (human, UniProt P51654 25-563, limits assumed)
T1 construct: soluble human GPC3 as analyte; also called glypican 3
Test: SPR (Biacore), soluble human GPC3

T1 sequence (P51654 other isoform, or with tags, fused parts or gaps limits assumed, form in doubt): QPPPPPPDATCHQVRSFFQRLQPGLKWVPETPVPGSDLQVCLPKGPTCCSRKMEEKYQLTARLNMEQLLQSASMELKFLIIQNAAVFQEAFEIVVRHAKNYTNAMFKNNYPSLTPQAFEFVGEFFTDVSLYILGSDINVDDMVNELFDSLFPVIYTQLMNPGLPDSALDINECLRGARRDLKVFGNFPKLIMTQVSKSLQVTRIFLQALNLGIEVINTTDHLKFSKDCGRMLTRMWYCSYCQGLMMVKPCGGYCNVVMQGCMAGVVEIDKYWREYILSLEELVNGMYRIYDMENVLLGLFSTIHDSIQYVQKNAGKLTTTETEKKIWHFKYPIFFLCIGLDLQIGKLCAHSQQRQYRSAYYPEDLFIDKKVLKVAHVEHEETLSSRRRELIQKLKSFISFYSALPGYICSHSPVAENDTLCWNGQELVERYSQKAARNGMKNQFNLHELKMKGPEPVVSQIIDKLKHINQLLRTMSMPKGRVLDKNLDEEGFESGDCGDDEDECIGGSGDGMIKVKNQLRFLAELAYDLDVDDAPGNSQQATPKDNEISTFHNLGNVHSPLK

| Binder | Kd [nM] |
| --- | --- |
| H0610-G1dh/none-Hi-Kn010G3/L0000-k0 (antibody, human IgG1, kappa, single-arm (one Fab)) heavy: not shown EPKSSDKTHTCPPCPAPELLGGPSVFLFPPKPKDTLMISRTPEVTCVVVDVSHEDPEVKFNWYVDGVEVHNAKTKPREEQYNSTYRVVSVLTVLHQDWLNGKEYKCKVSNKALPAPIEKTISKAKGQPREPQVCTLPPSRDELTKNQVSLWCLVKGFYPSDIAVEWESNGQPENNYKTTPPVLDSDGSFFLYSKLTVDKSRWQQGNVFSCSVMHEALHNRYTQKSLSLSP light: DIVMTQSPLSLPVTPGEPASISCRSSQSLVHSNRNTYLHWYQQKPGQAPRLLIYKVSNRFSGVPDRFSGSGSGTDFTLKISRVEAEDVGVYYCGQGTQVPYTFGQGTKLEIKRTVAAPSVFIFPPSDEQLKSGTASVVCLLNNFYPREAKVQWKVDNALQSGNSQESVTEQDSKDSTYSLSSTLTLSKADYEKHKVYACEVTHQGLSSPVTKSFNRGEC | 3.97 |
| GCH013-G1dh/none-Hi-Kn010G3/L0000-k0 (antibody, human IgG1, kappa, single-arm (one Fab)) heavy: not shown EPKSSDKTHTCPPCPAPELLGGPSVFLFPPKPKDTLMISRTPEVTCVVVDVSHEDPEVKFNWYVDGVEVHNAKTKPREEQYNSTYRVVSVLTVLHQDWLNGKEYKCKVSNKALPAPIEKTISKAKGQPREPQVCTLPPSRDELTKNQVSLWCLVKGFYPSDIAVEWESNGQPENNYKTTPPVLDSDGSFFLYSKLTVDKSRWQQGNVFSCSVMHEALHNRYTQKSLSLSP light: DIVMTQSPLSLPVTPGEPASISCRSSQSLVHSNRNTYLHWYQQKPGQAPRLLIYKVSNRFSGVPDRFSGSGSGTDFTLKISRVEAEDVGVYYCGQGTQVPYTFGQGTKLEIKRTVAAPSVFIFPPSDEQLKSGTASVVCLLNNFYPREAKVQWKVDNALQSGNSQESVTEQDSKDSTYSLSSTLTLSKADYEKHKVYACEVTHQGLSSPVTKSFNRGEC | 4.44 |
| GCH006-G1dh/none-Hi-Kn010G3/L0000-k0 (antibody, human IgG1, kappa, single-arm (one Fab)) heavy: not shown EPKSSDKTHTCPPCPAPELLGGPSVFLFPPKPKDTLMISRTPEVTCVVVDVSHEDPEVKFNWYVDGVEVHNAKTKPREEQYNSTYRVVSVLTVLHQDWLNGKEYKCKVSNKALPAPIEKTISKAKGQPREPQVCTLPPSRDELTKNQVSLWCLVKGFYPSDIAVEWESNGQPENNYKTTPPVLDSDGSFFLYSKLTVDKSRWQQGNVFSCSVMHEALHNRYTQKSLSLSP light: DIVMTQSPLSLPVTPGEPASISCRSSQSLVHSNRNTYLHWYQQKPGQAPRLLIYKVSNRFSGVPDRFSGSGSGTDFTLKISRVEAEDVGVYYCGQGTQVPYTFGQGTKLEIKRTVAAPSVFIFPPSDEQLKSGTASVVCLLNNFYPREAKVQWKVDNALQSGNSQESVTEQDSKDSTYSLSSTLTLSKADYEKHKVYACEVTHQGLSSPVTKSFNRGEC | 4.06 |
| GCH007-G1dh/none-Hi-Kn010G3/L0000-k0 (antibody, human IgG1, kappa, single-arm (one Fab)) heavy: not shown EPKSSDKTHTCPPCPAPELLGGPSVFLFPPKPKDTLMISRTPEVTCVVVDVSHEDPEVKFNWYVDGVEVHNAKTKPREEQYNSTYRVVSVLTVLHQDWLNGKEYKCKVSNKALPAPIEKTISKAKGQPREPQVCTLPPSRDELTKNQVSLWCLVKGFYPSDIAVEWESNGQPENNYKTTPPVLDSDGSFFLYSKLTVDKSRWQQGNVFSCSVMHEALHNRYTQKSLSLSP light: DIVMTQSPLSLPVTPGEPASISCRSSQSLVHSNRNTYLHWYQQKPGQAPRLLIYKVSNRFSGVPDRFSGSGSGTDFTLKISRVEAEDVGVYYCGQGTQVPYTFGQGTKLEIKRTVAAPSVFIFPPSDEQLKSGTASVVCLLNNFYPREAKVQWKVDNALQSGNSQESVTEQDSKDSTYSLSSTLTLSKADYEKHKVYACEVTHQGLSSPVTKSFNRGEC | 4.93 |
| GCH010-G1dh/none-Hi-Kn010G3/L0000-k0 (antibody, human IgG1, kappa, single-arm (one Fab)) heavy: not shown EPKSSDKTHTCPPCPAPELLGGPSVFLFPPKPKDTLMISRTPEVTCVVVDVSHEDPEVKFNWYVDGVEVHNAKTKPREEQYNSTYRVVSVLTVLHQDWLNGKEYKCKVSNKALPAPIEKTISKAKGQPREPQVCTLPPSRDELTKNQVSLWCLVKGFYPSDIAVEWESNGQPENNYKTTPPVLDSDGSFFLYSKLTVDKSRWQQGNVFSCSVMHEALHNRYTQKSLSLSP light: DIVMTQSPLSLPVTPGEPASISCRSSQSLVHSNRNTYLHWYQQKPGQAPRLLIYKVSNRFSGVPDRFSGSGSGTDFTLKISRVEAEDVGVYYCGQGTQVPYTFGQGTKLEIKRTVAAPSVFIFPPSDEQLKSGTASVVCLLNNFYPREAKVQWKVDNALQSGNSQESVTEQDSKDSTYSLSSTLTLSKADYEKHKVYACEVTHQGLSSPVTKSFNRGEC | 4.12 |

The remaining lines, values ahead:

| Kd [nM] | Binder |
| --- | --- |
| 4.2 | GCH014-G1dh/none-Hi-Kn010G3/L0000-k0 (antibody, human IgG1, kappa, single-arm (one Fab)) heavy: not shown EPKSSDKTHTCPPCPAPELLGGPSVFLFPPKPKDTLMISRTPEVTCVVVDVSHEDPEVKFNWYVDGVEVHNAKTKPREEQYNSTYRVVSVLTVLHQDWLNGKEYKCKVSNKALPAPIEKTISKAKGQPREPQVCTLPPSRDELTKNQVSLWCLVKGFYPSDIAVEWESNGQPENNYKTTPPVLDSDGSFFLYSKLTVDKSRWQQGNVFSCSVMHEALHNRYTQKSLSLSP light: DIVMTQSPLSLPVTPGEPASISCRSSQSLVHSNRNTYLHWYQQKPGQAPRLLIYKVSNRFSGVPDRFSGSGSGTDFTLKISRVEAEDVGVYYCGQGTQVPYTFGQGTKLEIKRTVAAPSVFIFPPSDEQLKSGTASVVCLLNNFYPREAKVQWKVDNALQSGNSQESVTEQDSKDSTYSLSSTLTLSKADYEKHKVYACEVTHQGLSSPVTKSFNRGEC |
| 4.36 | GCH019-G1dh/none-Hi-Kn010G3/L0000-k0 (antibody, human IgG1, kappa, single-arm (one Fab)) heavy: not shown EPKSSDKTHTCPPCPAPELLGGPSVFLFPPKPKDTLMISRTPEVTCVVVDVSHEDPEVKFNWYVDGVEVHNAKTKPREEQYNSTYRVVSVLTVLHQDWLNGKEYKCKVSNKALPAPIEKTISKAKGQPREPQVCTLPPSRDELTKNQVSLWCLVKGFYPSDIAVEWESNGQPENNYKTTPPVLDSDGSFFLYSKLTVDKSRWQQGNVFSCSVMHEALHNRYTQKSLSLSP light: DIVMTQSPLSLPVTPGEPASISCRSSQSLVHSNRNTYLHWYQQKPGQAPRLLIYKVSNRFSGVPDRFSGSGSGTDFTLKISRVEAEDVGVYYCGQGTQVPYTFGQGTKLEIKRTVAAPSVFIFPPSDEQLKSGTASVVCLLNNFYPREAKVQWKVDNALQSGNSQESVTEQDSKDSTYSLSSTLTLSKADYEKHKVYACEVTHQGLSSPVTKSFNRGEC |
| 4.59 | GCH016-G1dh/none-Hi-Kn010G3/L0000-k0 (antibody, human IgG1, kappa, single-arm (one Fab)) heavy: not shown EPKSSDKTHTCPPCPAPELLGGPSVFLFPPKPKDTLMISRTPEVTCVVVDVSHEDPEVKFNWYVDGVEVHNAKTKPREEQYNSTYRVVSVLTVLHQDWLNGKEYKCKVSNKALPAPIEKTISKAKGQPREPQVCTLPPSRDELTKNQVSLWCLVKGFYPSDIAVEWESNGQPENNYKTTPPVLDSDGSFFLYSKLTVDKSRWQQGNVFSCSVMHEALHNRYTQKSLSLSP light: DIVMTQSPLSLPVTPGEPASISCRSSQSLVHSNRNTYLHWYQQKPGQAPRLLIYKVSNRFSGVPDRFSGSGSGTDFTLKISRVEAEDVGVYYCGQGTQVPYTFGQGTKLEIKRTVAAPSVFIFPPSDEQLKSGTASVVCLLNNFYPREAKVQWKVDNALQSGNSQESVTEQDSKDSTYSLSSTLTLSKADYEKHKVYACEVTHQGLSSPVTKSFNRGEC |
| 4.14 | GCH015-G1dh/none-Hi-Kn010G3/L0000-k0 (antibody, human IgG1, kappa, single-arm (one Fab)) heavy: not shown EPKSSDKTHTCPPCPAPELLGGPSVFLFPPKPKDTLMISRTPEVTCVVVDVSHEDPEVKFNWYVDGVEVHNAKTKPREEQYNSTYRVVSVLTVLHQDWLNGKEYKCKVSNKALPAPIEKTISKAKGQPREPQVCTLPPSRDELTKNQVSLWCLVKGFYPSDIAVEWESNGQPENNYKTTPPVLDSDGSFFLYSKLTVDKSRWQQGNVFSCSVMHEALHNRYTQKSLSLSP light: DIVMTQSPLSLPVTPGEPASISCRSSQSLVHSNRNTYLHWYQQKPGQAPRLLIYKVSNRFSGVPDRFSGSGSGTDFTLKISRVEAEDVGVYYCGQGTQVPYTFGQGTKLEIKRTVAAPSVFIFPPSDEQLKSGTASVVCLLNNFYPREAKVQWKVDNALQSGNSQESVTEQDSKDSTYSLSSTLTLSKADYEKHKVYACEVTHQGLSSPVTKSFNRGEC |
